According to patent US20050287597:

B1: FLAG-tagged human SIRT2 (C-terminal FLAG tag) (protein)
chain: MAEPDPSHPLETQAGKVQEAQDSDSDSEGGAAGGEADMDFLRNLFSQTLSLGSQKERLLDELTLEGVARYMQSERCRRVICLVGAGISTSAGIPDFRSPSTGLYDNLEKYHLPYPEAIFEISYFKKHPEPFFALAKELYPGQFKPTICHYFMRLLKDKGLLLRCYTQNIDTLERIAGLEQEDLVEAHGTFYTSHCVSASCRHEYPLSWMKEKIFSEVTPKCEDCQSLVKPDIVFFGESLPARFFSCMQSDFLKVDLLLVMGTSLQVQPFASLISKAPLSTPRLLINKEKAGQSDPFLGMIMGLGGGMDFDSKKAYRDVAWLGECDQGCLALAELLGWKKELEDLVRREHASIDAQSGAGVPNPSTSASPKKSPPPAKDEARTTEREKPQ
B2: FLAG-tagged human SIRT3 (C-terminal FLAG tag) (protein)
chain: MAFWGWRAAAALRLWGRVVERVEAGGGVGPFQACGCRLVLGGRDDVSAGLRGSHGARGEPLDPARPLQRPPRPEVPRAFRRQPRAAAPSFFFSSIKGGRRSISFSVGASSVVGSGGSSDKGKLSLQDVAELIRARACQRVVVMVGAGISTPSGIPDFRSPGSGLYSNLQQYDLPYPEAIFELPFFFHNPKPFFTLAKELYPGNYKPNVTHYFLRLLHDKGLLLRLYTQNIDGLERVSGIPASKLVEAHGTFASATCTVCQRPFPGEDIRADVMADRVPRCPVCTGVVKPDIVFFGEPLPQRFLLHVVDFPMADLLLILGTSLEVEPFASLTEAVRSSVPRLLINRDLVGPLAWHPRSRDVAQLGDVVHGVESLVELLGWTEEMRDLVQRETGKLDGPDK
B3: FLAG-tagged human SIRT1 (C-terminal FLAG tag) (protein)
chain: MADEAALALQPGGSPSAAGADREAASSPAGEPLRKRPRRDGPGLERSPGEPGGAAPEREVPAAARGCPGAAAAALWREAEAEAAAAGGEQEAQATAAAGEGDNGPGLQGPSREPPLADNLYDEDDDDEGEEEEEAAAAAIGYRDNLLFGDEIITNGFHSCESDEEDRASHASSSDWTPRPRIGPYTFVQQHLMIGTDPRTILKDLLPETIPPPELDDMTLWQIVINILSEPPKRKKRKDINTIEDAVKLLQECKKIIVLTGAGVSVSCGIPDFRSRDGIYARLAVDFPDLPDPQAMFDIEYFRKDPRPFFKFAKEIYPGQFQPSLCHKFIALSDKEGKLLRNYTQNIDTLEQVAGIQRIIQCHGSFATASCLICKYKVDCEAVRGDIFNQVVPRCPRCPADEPLAIMKPEIVFFGENLPEQFHRAMKYDKDEVDLLIVIGSSLKVRPVALIPSSIPHEVPQILINREPLPHLHFDVELLGDCDVIINELCHRLGGEYAKLCCNPVKLSEITEKPPRTQKELAYLSELPPTPLHVSEDSSSPERTSPPDSSVIVTLLDQAAKSNDDLDVSESKGCMEEKPQEVQTSRNVESIAEQMENPDLKNVGSSTGEKNERTSVAGTVRKCWPNRVAKEQISRRLDGNQYLFLPPNRYIFHGAEVYSDSEDDVLSSSSCGSNSDSGTCQSPSLEEPMEDESEIEEFYNGLEDEPDVPERAGGAGFGTDGDDQEAINEAISVKQEVTDMNYPSNKS

Target: synthetic Tat (72 amino acids) carrying an N-terminal biotin label and an acetyl group at position 50

Protein	in vitro Tat deacetylation (western blot with antibodies specific for acetylated lysine 50 in Tat)
B1	resulted in deacetylation of Tat lysine 50
B2	resulted in deacetylation of Tat lysine 50
B3	resulted in deacetylation of Tat lysine 50
